# “Also recorded” adds a separate entry of the source.
# B1: FGF7: recombinant human FGF7, the classical ligand of FGFR2b (protein, UniProt P21781 32-194, looked up)
# Fibroblast growth factor 7: CNDMTPEQMATNVNCSSPERHTRSYDYMEGGDIRVRRLFCRTQWYLRIDKRGKVKGTQEMKNNYNIMEIRTVAVGIVAIKGVESEFYLAMNKEGKLYAKKECNEDCNFKELILENHYNTYASAKWTHNGGEMFVALNQKGIPVRGKKTKKEQKTAHFLPMAIT
# Assays:
# HSV-1 [1] = assay: HSV-1 infection of human primary foreskin keratinocytes; details: HSV-1 MOI=0.5, 24 h
# HSV-1 [2] = assay: HSV-1 infection of HaCaT cells, virus load; format: cell-based, Herpes Simplex Virus type 1
# Description: FIGS. 5A-C relate to HaCaT cells infected with HSV-1 (MOI=0.5) after overnight serum starvation, either alone or in combination with FGF7 (10 ng/ml) or IFNα (1000U/ml). 24 h after infection, virus load was determined by qPCR for the HSV-1 Glycoprotein B (Glyc-B) gene relative to the human β-actin gene (A) or visualized by immunofluorescence staining for HSV-1 Glycoprotein D (Glyc-D) (red) (B). The Glyc-B/β-actin gene ratio in HSV-1 infected cells was set to 1. Cell nuclei were stained with DAPI (blue). Magnification bar: 200 μm. (C) Transmission microscopy images of HaCaT cells taken 48 h after HSV-1 infection. […] Magnification bar: 80 μm. Representative data out of four experiments are shown.
# FIGS. 5 D & E relate to overnight-starved HaCaT cells infected with HSV-1 (MOI=0.5) alone or in combination with IFNα (1000 U/ml), IFNα and FGF7 (10 ng/ml) (D); or FGF7 at different concentrations (E).
# FIG. 5F pertains to serum-starved HaCaT cells that were infected with HSV-1 (MOI 0.5-1). After 4 h, infected cells were washed with PBS, followed by addition of fresh serum-free culture medium containing FGF7 (10 ng/ml).
# FIGS. 5G-K pertains to overnight-starved HaCaT cells infected with HSV-1 (MOI=0.5) alone or in combination with FGF7, which was added at the indicated time points. 12 h after infection, cells were analyzed for Glyc-B DNA (H) and, RSAD2 and IRF7 mRNA levels by qPCR/qRT-PCR (I) or for ISG protein levels by western blotting (K). Vinculin was used as loading control.
# FIGS. 7A-C relate to serum-starved HaCaT cells that were infected with HSV-1 in the presence or absence of FGF7 (10 ng/ml), NSC23766 (20 μM), the FGFR kinase inhibitors AZD4547 (1 μM) and BGJ398 (3.5 μM) (A) or IFNα (1000 U/ml) (B). […] Magnification bar: 500 μm. The Glyc-D positive area was quantified using digital pixel measurements (C, right). A representative out of two experiments is shown.
# Frozen sections from mouse back skin were fixed with cold methanol, and unspecific binding sites were blocked with PBS/2% bovine serum albumin (BSA) (Sigma)/1% fish skin gelatin (Sigma)/0.05% Triton X-100 (Carl Roth GmbH, Karlsruhe, Germany) for 2 h at room temperature. Samples were then incubated overnight at 4° C. with anti-IRF7 or anti-K14 antibodies diluted in the same buffer. After three washes with 1×PBS/0.1% Tween 20 (Carl Roth GmbH), slides were incubated at room temperature (RT) for 4 h with secondary antibodies (AF555-conjugated anti-rabbit IgG and AF488-conjugated anti-mouse IgG) and DAPI (4′,6-diamidino-2-phenylindole dihydrochloride) (Sigma) as counter-stain, washed again and mounted with Mowiol (Hoechst, Frankfurt, Germany). Stained sections were photographed with a Leica SP1-2 confocal microscope equipped with a 63×0.6-1.32 NA (Iris) PL Apo Oil objective. For data acquisition the Leica Confocal Software (Leica, Wetzlar, Germany) was used. For immunofluorescence staining of cultured cells, they were washed with PBS and either fixed for 5 min with cold methanol for staining with antibodies against ZO-1 and IRF7, or with 4% paraformaldehyde (PFA) (Sigma) for 20 min at RT for Glyc-D staining. PFA-fixed cells were then incubated for 10 min with 0.5% Triton X-100 in PBS. After 1 h blocking in PBS containing 2% BSA, cells were stained with the primary antibodies for 1 h in the same blocking buffer. After three washes with PBS, cells were incubated with the secondary antibodies (AF555-conjugated anti-mouse IgG, AF488-conjugated anti-mouse IgG and AF555-conjugated anti-rabbit IgG) and DAPI.
# HSV-1 [3] = assay: Ex vivo HSV-1 infection of epidermal sheets from mouse tail skin; format: cell-based, Herpes Simplex Virus type 1; details: HSV-1 MOI=2, 48 h, FGF7 15 ng/ml, NSC23766 50 μM, AZD4547 1 μM
# Description: FIG. 7D pertains to epidermal sheets from tail skin of wild-type mice that were infected ex vivo with HSV-1 (MOI=2) in the presence or absence of IFNα, FGF7, NSC23766 or AZD4547 and analyzed by immunofluorescence staining 48 h after infection with antibodies against Glyc-D (red). […] Cell nuclei were stained using DAPI (blue). Magnification bar: 800 μm. Values obtained for HSV-1 infected cells in (A-C) without additional treatment were set to 1.
# HSV-1 infection of epidermal sheets from mouse tails was performed as previously described (Rahn et al., J. Invest. Dermatol 135, 3009-3016, 2015). Briefly, skin was removed from the tails of 3 month-old mice, followed by separation of the epidermis from the dermis by dispase treatment (5 mg/ml). After floating the epidermal sheets on serum-free DMEM overnight, they were incubated with HSV-1 alone (MOI=2) or in combination with FGF7 (15 ng/ml), IFNα (1000 U/ml) and/or NSC23766 (50 μM) or AZD4547 (1 μM) for 48 h and subsequently fixed in 4% PFA for 1 h at RT. The sheets were then incubated in blocking solution (PBS 2% BSA/1% fish skin gelatin/0.05% Triton Tx-100) for 2 h at RT and stained overnight at 4° C. with an antibody against Glyc-D diluted in blocking solution. […]
# LCMV = format: cell-based, Lymphocytic Choriomeningitis Virus; details: HaCaT, LCMV MOI 0.05 or 0.2
molecule,measurement,setting,value
B1,effect on HSV-1 infection (Glyc-B qPCR),HSV-1 [1],confirmed
same,"viral DNA, FGF7 given after removal of the virus","HSV-1 [2]; HaCaT infected 4 h, virus removed, FGF7 10 ng/ml for 8 h",A strong increase in viral DNA
same,appearance of HSV-1 infected cells (transmission microscopy),"HSV-1 [2]; HaCaT, 48 h after infection",completely detached
same,IFNα-mediated reduction in viral DNA,"HSV-1 [2]; HaCaT, HSV-1, IFNα 1000 U/ml and FGF7 10 ng/ml",partially reverted
same,levels of viral DNA at different FGF7 concentrations,"HSV-1 [2]; HaCaT, HSV-1 MOI=0.5",induced the levels of viral DNA in a dose-dependent manner
same,HSV-1 glycoprotein D (Glyc-D) immunofluorescence staining,"HSV-1 [2]; HaCaT, HSV-1 MOI=0.5, FGF7 10 ng/ml",increased strongly
same,viral glycoprotein B (Glyc-B) DNA,"HSV-1 [2]; HaCaT, HSV-1 MOI=0.5, FGF7 10 ng/ml or IFNα 1000 U/ml",A strong increase in viral DNA
same,"HSV-1 replication, FGF7 present only for 4h","HSV-1 [2]; HaCaT, analysis 12 h after infection",no longer promoted
same,"HSV-1 replication, FGF7 added with the virus or 2h or 4h post infection","HSV-1 [2]; HaCaT, exposed to FGF7 for 12h, 10h or 8h",strongly promoted HSV-1 replication
same,HSV-1 infection / viral dissemination (Glyc-D staining),HSV-1 [3],stronger; also recorded: A strong increase in infected cells
same,expression levels of LCMV nucleoprotein (NP) / viral replication,LCMV,strongly increased

# From US20210322404A1, “FGFR REGULATION FOR THE TREATMENT OF VIRAL INFECTIONS” (ETH ZURICH, priority 2016, published 2021)
